This note sets out measurements from patent publication US20140105889A1 (published 2014).

The target in one assay is T1, human FcγRIIIa(F) (human, UniProt P08637 17-208, limits assumed).
T1 construct: also called FcgRIIIaF; hFcgRIIIa(F)
The assay is described as follows: SPR (Biacore), antibody captured by Protein L, FcγR as analyte, pH 7.4, 25°C; amount normalised to captured antibody.

For assay [1], the target named is T2, mouse FcγRIV (mouse).
T2 construct: Bought soluble receptor; also called mFcgRIV; mFcgR IV
T2 sequence (A0A0B4J1G0 21-203): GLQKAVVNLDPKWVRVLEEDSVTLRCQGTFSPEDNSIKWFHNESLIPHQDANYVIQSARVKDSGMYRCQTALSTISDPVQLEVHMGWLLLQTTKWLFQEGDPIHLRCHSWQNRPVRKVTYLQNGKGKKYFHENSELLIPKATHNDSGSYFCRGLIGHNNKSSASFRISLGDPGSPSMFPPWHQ
The assay is described as follows: SPR (Biacore), antibody captured on Protein L, mouse FcγR as analyte, pH 7.4, 25 C.
Protocol: (§1) Binding activity between the antibodies and mouse FcγRI, FcγRII, FcγRIII and FcγRIV (R&D Systems, Sin θ Biological) (hereinafter referred to as mouse FcγRs) was evaluated using the Biacore T100 or T200 (GE Healthcare). The antibodies being tested were captured by Protein L (ACTIGEN) that was immobilized in suitable amounts on the CM4 Sensor Chip (GE Healthcare) by amine coupling. Next, the diluted mouse FcγRs and a running buffer used as a blank were injected to allow interaction with the antibody captured on the sensor chip. A buffer consisting of 20 mmol/L ACES, 150 mmol/L NaCl and 0.05% (w/v) Tween 20 (pH 7.4) was used for the running buffer, and this buffer was also used to dilute the mouse FcγRs. 10 mmol/L glycine-HCl (pH 1.5) was used to regenerate the sensor chip. All measurements were carried out at 25° C.

A further assay deals with T3, human FcγRIIb (human, UniProt P31994 43-217, limits assumed).
T3 construct: also called FcγIIB; hFcgRIIb
T3 sequence: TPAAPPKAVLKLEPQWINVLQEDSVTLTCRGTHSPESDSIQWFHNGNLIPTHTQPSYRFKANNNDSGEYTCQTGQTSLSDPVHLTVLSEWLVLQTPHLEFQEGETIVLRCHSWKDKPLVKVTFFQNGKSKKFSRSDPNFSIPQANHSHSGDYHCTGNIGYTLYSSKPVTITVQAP
As to the kind of experiment: SPR KD for FcγRIIb of parent IL6R-B3/IL6R-L divided by that of this variant.

Assay [2] addresses T2, mouse FcγRIV. The assay is described as follows: SPR (Biacore), antibody captured on Protein L, mouse FcγR as analyte, pH 7.4, 25 C. The source holds these as a separate data set.
Protocol: as §1

Where two headings read alike, the source gives them in different places.

T1 sequence (P08637 other isoform, or with tags, fused parts or gaps limits assumed): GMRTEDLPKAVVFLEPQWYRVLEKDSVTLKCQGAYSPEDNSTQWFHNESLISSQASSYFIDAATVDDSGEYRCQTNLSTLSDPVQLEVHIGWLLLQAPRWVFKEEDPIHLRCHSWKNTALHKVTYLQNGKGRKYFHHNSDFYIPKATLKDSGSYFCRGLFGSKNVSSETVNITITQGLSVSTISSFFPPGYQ
Protocol for human FcγRIIIa(F): Binding activity between the antibodies and human FcγRIa, FcγRIIa(H), FcγRIIa(R), FcγRIIb and FcγRIIIa(F) (hereinafter referred to as human FcγRs) was evaluated using the Biacore T100 or T200 (GE Healthcare). The antibodies being tested were captured by Protein L (ACTIGEN) that was immobilized in suitable amounts on the CM4 Sensor Chip (GE Healthcare) by amine coupling. Next, the diluted human FcγRs and a running buffer used as a blank were injected to allow interaction with the antibodies captured on the sensor chip. A buffer consisting of 20 mmol/L ACES, 150 mmol/L NaCl and 0.05% (w/v) Tween 20 (pH 7.4) was used for the running buffer, and this buffer was also used to dilute the human FcγRs. 10 mmol/L glycine-HCl (pH 1.5) was used to regenerate the sensor chip. All measurements were carried out at 25° C.
Description for human FcγRIIb: Furthermore, KD(IIaR)/KD(IIb) and KD(IIaH)/KD(IIb) in the table respectively represent the value obtained by dividing the KD value of each variant for FcγRIIaR by the KD value of each variant for FcγRIIb, and the value obtained by dividing the KD value of each variant for FcγRIIaH by the KD value of each variant for FcγRIIb.

B1: antibody containing VH3-IgG2-F890 and L(WT)-CK (antibody)
heavy: QVQLQESGPGLVKPSETLSLTCAVSGHSISHDHAWSWVRQPPGEGLEWIGFISYSGITNYNPSLQGRVTISRDNSKNTLYLQMNSLRAEDTAVYYCARSLARTTAMDYWGEGTLVTVSSASTKGPSVFPLAPCSRSTSESTAALGCLVKDYFPEPVTVSWNSGALTSGVHTFPAVLQSSGLYSLSSVVTVPSSNFGTQTYTCNVDHKPSNTKVDKTVERKCCVECPPCPAPPVAGPSVFLFPPKPKDTLYISRTPEVTCVVVDVSHEDPEVQFNWYVDGVEVHNAKTKPREEQFNSTFRVVSVLTVVHQDWLNGKEYKCKVSNKGLPAPIEKTISKTKGQPREPQVYTLPPSREEMTKNQVSLTCLVKGFYPSDIAVEWESNGQPENNYKTTPPMLDSDGSFFLYSKLTVDKSRWQQGNVFSCSVMHEALHYHVTQKSLSLSP
light: not shown
notes: VH3-IgG2 with M252Y/N434Y/Y436V (EU numbering)
As for B1, in the assay with human FcγRIIIa(F), the “BINDING AMOUNT (RU)” value was 9.3 RU.

B2: antibody containing VH3-IgG2 and L(WT)-CK (antibody)
heavy: QVQLQESGPGLVKPSETLSLTCAVSGHSISHDHAWSWVRQPPGEGLEWIGFISYSGITNYNPSLQGRVTISRDNSKNTLYLQMNSLRAEDTAVYYCARSLARTTAMDYWGEGTLVTVSSASTKGPSVFPLAPCSRSTSESTAALGCLVKDYFPEPVTVSWNSGALTSGVHTFPAVLQSSGLYSLSSVVTVPSSNFGTQTYTCNVDHKPSNTKVDKTVERKCCVECPPCPAPPVAGPSVFLFPPKPKDTLMISRTPEVTCVVVDVSHEDPEVQFNWYVDGVEVHNAKTKPREEQFNSTFRVVSVLTVVHQDWLNGKEYKCKVSNKGLPAPIEKTISKTKGQPREPQVYTLPPSREEMTKNQVSLTCLVKGFYPSDIAVEWESNGQPENNYKTTPPMLDSDGSFFLYSKLTVDKSRWQQGNVFSCSVMHEALHNHYTQKSLSLSP
light: not shown
Turning to B2, in the assay with human FcγRIIIa(F), the “BINDING AMOUNT (RU)” value turned out to be 16.3 RU.

B3: antibody containing VH3-IgG2-F939 and L(WT)-CK (antibody)
heavy: QVQLQESGPGLVKPSETLSLTCAVSGHSISHDHAWSWVRQPPGEGLEWIGFISYSGITNYNPSLQGRVTISRDNSKNTLYLQMNSLRAEDTAVYYCARSLARTTAMDYWGEGTLVTVSSASTKGPSVFPLAPCSRSTSESTAALGCLVKDYFPEPVTVSWNSGALTSGVHTFPAVLQSSGLYSLSSVVTVPSSNFGTQTYTCNVDHKPSNTKVDKTVERKCCVECPPCPAPPVRGPKVFLFPPKPKDTLYISRTPEVTCVVVDVSHEDPEVQFNWYVDGVEVHNAKTKPREEQFNSTFRVVSVLTVVHQDWLNGKEYKCKVSNKGLPAPIEKTISKTKGQPREPQVYTLPPSREEMTKNQVSLTCLVKGFYPSDIAVEWESNGQPENNYKTTPPMLDSDGSFFLYSKLTVDKSRWQQGNVFSCSVMHEALHYHVTQKSLSLSP
light: not shown
notes: VH3-IgG2 with A235R/S239K/M252Y/N434Y/Y436V (EU numbering)
For the molecule B3, in the assay with human FcγRIIIa(F), the “BINDING AMOUNT (RU)” value was found to be 0.6 RU.

B4: antibody containing VH3-IgG4-F890 and L(WT)-CK (antibody)
heavy: QVQLQESGPGLVKPSETLSLTCAVSGHSISHDHAWSWVRQPPGEGLEWIGFISYSGITNYNPSLQGRVTISRDNSKNTLYLQMNSLRAEDTAVYYCARSLARTTAMDYWGEGTLVTVSSASTKGPSVFPLAPCSRSTSESTAALGCLVKDYFPEPVTVSWNSGALTSGVHTFPAVLQSSGLYSLSSVVTVPSSSLGTKTYTCNVDHKPSNTKVDKRVESKYGPPCPPCPAPEFLGGPSVFLFPPKPKDTLYISRTPEVTCVVVDVSQEDPEVQFNWYVDGVEVHNAKTKPREEQFNSTYRVVSVLTVLHQDWLNGKEYKCKVSNKGLPSSIEKTISKAKGQPREPQVYTLPPSQEEMTKNQVSLTCLVKGFYPSDIAVEWESNGQPENNYKTTPPVLDSDGSFFLYSRLTVDKSRWQEGNVFSCSVMHEALHYHVTQKSLSLSL
light: not shown
notes: VH3-IgG4 with M252Y/N434Y/Y436V (EU numbering)
For the molecule B4, the “BINDING AMOUNT (RU)” value in the assay with human FcγRIIIa(F) was determined as 3.4 RU.

B5: antibody containing VH3-IgG4-F939 and L(WT)-CK (antibody)
heavy: QVQLQESGPGLVKPSETLSLTCAVSGHSISHDHAWSWVRQPPGEGLEWIGFISYSGITNYNPSLQGRVTISRDNSKNTLYLQMNSLRAEDTAVYYCARSLARTTAMDYWGEGTLVTVSSASTKGPSVFPLAPCSRSTSESTAALGCLVKDYFPEPVTVSWNSGALTSGVHTFPAVLQSSGLYSLSSVVTVPSSSLGTKTYTCNVDHKPSNTKVDKRVESKYGPPCPPCPAPEFRGGPKVFLFPPKPKDTLYISRTPEVTCVVVDVSQEDPEVQFNWYVDGVEVHNAKTKPREEQFNSTYRVVSVLTVLHQDWLNGKEYKCKVSNKGLPSSIEKTISKAKGQPREPQVYTLPPSQEEMTKNQVSLTCLVKGFYPSDIAVEWESNGQPENNYKTTPPVLDSDGSFFLYSRLTVDKSRWQEGNVFSCSVMHEALHYHVTQKSLSLSL
light: not shown
notes: VH3-IgG4 with L235R/S239K/M252Y/N434Y/Y436V (EU numbering)
Turning to B5, the “BINDING AMOUNT (RU)” value in the assay with human FcγRIIIa(F) is -1.7 RU.

B6: antibody with VH3-IgG1-F821 heavy chain and L(WT)-CK light chain (antibody)
heavy: QVQLQESGPGLVKPSETLSLTCAVSGHSISHDHAWSWVRQPPGEGLEWIGFISYSGITNYNPSLQGRVTISRDNSKNTLYLQMNSLRAEDTAVYYCARSLARTTAMDYWGEGTLVTVSSASTKGPSVFPLAPSSKSTSGGTAALGCLVKDYFPEPVTVSWNSGALTSGVHTFPAVLQSSGLYSLSSVVTVPSSSLGTQTYICNVNHKPSNTKVDKKVEPKSCDKTHTCPPCPAPELRGGPKVFLFPPKPKDTLYISRTPEVTCVVVDVSHEDPEVKFNWYVDGVEVHNAKTKPREEQYNSTYRVVSVLTVLHQDWLNGKEYKCKVSNKALPAPIEKTISKAKGQPREPQVYTLPPSRDELTKNQVSLTCLVKGFYPSDIAVEWESNGQPENNYKTTPPVLDSDGSFFLYSKLTVDKSRWQQGNVFSCSVMHEALHYHYTQKSLSLSP
light: not shown
notes: copies: 2 + 2
Take B6: the “BINDING AMOUNT (RU)” value with mouse FcγRIV [1] was -3.8 RU.

B7: antibody with VH3-IgG1-F939 heavy chain and L(WT)-CK light chain (antibody)
heavy: QVQLQESGPGLVKPSETLSLTCAVSGHSISHDHAWSWVRQPPGEGLEWIGFISYSGITNYNPSLQGRVTISRDNSKNTLYLQMNSLRAEDTAVYYCARSLARTTAMDYWGEGTLVTVSSASTKGPSVFPLAPSSKSTSGGTAALGCLVKDYFPEPVTVSWNSGALTSGVHTFPAVLQSSGLYSLSSVVTVPSSSLGTQTYICNVNHKPSNTKVDKKVEPKSCDKTHTCPPCPAPELRGGPKVFLFPPKPKDTLYISRTPEVTCVVVDVSHEDPEVKFNWYVDGVEVHNAKTKPREEQYNSTYRVVSVLTVLHQDWLNGKEYKCKVSNKALPAPIEKTISKAKGQPREPQVYTLPPSRDELTKNQVSLTCLVKGFYPSDIAVEWESNGQPENNYKTTPPVLDSDGSFFLYSKLTVDKSRWQQGNVFSCSVMHEALHYHVTQKSLSLSP
light: not shown
notes: copies: 2 + 2
Take B7: the “BINDING AMOUNT (RU)” value with mouse FcγRIV [1] was -7.3 RU.

B8: IL6R-BP133/IL6R-L (antibody, human IgG1)
heavy: QVQLQESGPGLVKPSETLSLTCAVSGHSISHDHAWSWVRQPPGEGLEWIGFISYSGITNYNPSLQGRVTISRDNSKNTLYLQMNSLRAEDTAVYYCARSLARTTAMDYWGEGTLVTVSSASTKGPSVFPLAPSSKSTSGGTAALGCLVKDYFPEPVTVSWNSGALTSGVHTFPAVLQSSGLYSLSSVVTVPSSSLGTQTYICNVNHKPSNTKVDKKVEPKSCDKTHTCPPCPAPDYLGGDSVFLFPPKPKDTLMISRTPEVTCVVVDVSHEDPEVKFNWYVDGVEVHNAKTKPREEQYNSTYRVVSVLTVLHQDWLNGKEYKCKVSNKALPKPIEKTISKAKGQPREPQVYTLPPSRDELTKNQVSLTCLVKGFYPSDIAVEWESNGQPENNYKTTPPVLDSDGSFFLYSKLTVDKSRWQQGNVFSCSVMHEALHNHYTQESLSLSP
light: DIQMTQSPSSLSASVGDRVTITCRASQDISSYLNWYQQKPGKAPKLLIYYTSRLHSGVPSRFSGSGSGTDFTFTISSLQPEDIATYYCQQGNTLPYTFGQGTKVEIK
notes: copies: 2 + 2
As for B8, in the assay with human FcγRIIb, the “KD(IIb) of the parent polypeptide/KD(IIb) of the altered polypeptide” value came out at 5.5.

B9: antibody with VH3-IgG1-F1009 heavy chain and L(WT)-CK light chain (antibody)
heavy: QVQLQESGPGLVKPSETLSLTCAVSGHSISHDHAWSWVRQPPGEGLEWIGFISYSGITNYNPSLQGRVTISRDNSKNTLYLQMNSLRAEDTAVYYCARSLARTTAMDYWGEGTLVTVSSASTKGPSVFPLAPSSKSTSGGTAALGCLVKDYFPEPVTVSWNSGALTSGVHTFPAVLQSSGLYSLSSVVTVPSSSLGTQTYICNVNHKPSNTKVDKKVEPKSCDKTHTCPPCPAPELRGGPKVFLFPPKPKDVLYISRTPEVTCVVVDVSHEDPEVKFNWYVDGVEVHNAKTKPREEQYNSTYRVVSVLQPLHADWLNGKEYKCKVSNKALPAPIEKTISKAKGQPREPQVYTLPPSRDELTKNQVSLTCLVKGFYPSDIAVEWESNGQPENNYKTTPPVLDSDGSFFLYSKLTVDKSRWQQGNVFSCSVMHEALHYHVTQKSLSLSP
light: not shown
notes: copies: 2 + 2
Turning to B9, the “BINDING AMOUNT (RU)” value with mouse FcγRIV [1] came out at 7.2 RU.

B10: antibody with VH3-IgG1-F890 heavy chain and L(WT)-CK light chain (antibody)
heavy: QVQLQESGPGLVKPSETLSLTCAVSGHSISHDHAWSWVRQPPGEGLEWIGFISYSGITNYNPSLQGRVTISRDNSKNTLYLQMNSLRAEDTAVYYCARSLARTTAMDYWGEGTLVTVSSASTKGPSVFPLAPSSKSTSGGTAALGCLVKDYFPEPVTVSWNSGALTSGVHTFPAVLQSSGLYSLSSVVTVPSSSLGTQTYICNVNHKPSNTKVDKKVEPKSCDKTHTCPPCPAPELLGGPSVFLFPPKPKDTLYISRTPEVTCVVVDVSHEDPEVKFNWYVDGVEVHNAKTKPREEQYNSTYRVVSVLTVLHQDWLNGKEYKCKVSNKALPAPIEKTISKAKGQPREPQVYTLPPSRDELTKNQVSLTCLVKGFYPSDIAVEWESNGQPENNYKTTPPVLDSDGSFFLYSKLTVDKSRWQQGNVFSCSVMHEALHYHVTQKSLSLSP
light: not shown
notes: copies: 2 + 2
For the molecule B10, the “BINDING AMOUNT (RU)” value with mouse FcγRIV [1] is 230 RU.

B11: antibody with mPM1H-mIgG1-mF14 heavy chain (antibody)
heavy: DVQLQESGPVLVKPSQSLSLTCTVTGYSITSDHAWSWIRQFPGNKLEWMGYISYSGITTYNPSLKSRISITRDTSKNQFFLQLNSVTTGDTSTYYCARSLARTTAMDYWGQGTSVTVSSAKTTPPSVYPLAPGSAAQTNSMVTLGCLVKGYFPEPVTVTWNSGSLSSGVHTFPAVLQSDLYTLSSSVTVPSSTWPSETVTCNVAHPASSTKVDKKIVPRDCGCKPCICTVPEVSSVFIFPPKPKDVLYITLEPKVTCVVVDISKDDPEVQFSWFVDDVEVHTAQTQPREEQFNSTFRSVSELPIMHQDWLNGKEFKCRVNSAAFPAPIEKTISKTKGRPKAPQVYTIPPPKEQMAKDKVSLTCMITDFFPEDITVEWQWNGQPAENYKNTQPIMDTDGSYFVYSKLNVQKSNWEAGNTFTCSVLHEGLKNHHTEKSLSHSPGK
light: not shown
notes: also called mPM1-mIgG1-mF14; copies: 2 + 2
Regarding B11, the “BINDING AMOUNT (RU)” value with mouse FcγRIV [2] was -8 RU.
